According to PMC4652608, “The inhibition of human farnesyl pyrophosphate synthase by nitrogen-containing bisphosphonates. Elucidating the role of active site threonine 201 and tyrosine 204 residues using enzyme mutants^” (Bone, 2015):

What was measured:
FPPS synthase assay [1] = substrate: CC(C)=CCC/C(C)=C/COP(=O)(O)OP(=O)(O)O; assay: FPPS synthase assay; format: biochemical, Homo sapiens; conditions: co-substrate IPP
Source text: (§1) FPPS synthase assay on human farnesyl pyrophosphate synthase (FPPS; wtFPPS)

FPPS synthase assay [2] = substrate: C=C(C)CCO[P@@](=O)(O)OP(=O)(O)O; assay: FPPS synthase assay; format: biochemical, Homo sapiens; conditions: co-substrate GPP
Source text: as §1

B1: human farnesyl pyrophosphate synthase (FPPS; wtFPPS) (Homo sapiens) (protein)
chain: MNGDQNSDVYAQEKQDFVQHFSQIVRVLTEDEMGHPEIGDAIARLKEVLEYNAIGGKYNRGLTVVVAFRELVEPRKQDADSLQRAWTVGWCVELLQAFFLVADDIMDSSLTRRGQICWYQKPGVGLDAINDANLLEACIYRLLKLYCREQPYYLNLIELFLQSSYQTEIGQTLDLLTAPQGNVDLVRFTEKRYKSIVKYKTAFYSFYLPIAAAMYMAGIDGEKEHANAKKILLEMGEFFQIQDDYLDLFGDPSVTGKIGTDIQDNKCSWLVVQCLQRATPEQYQILKENYGQKEAEKVARVKALYEELDLPAVFLQYEEDSYSHIMALIEQYAAPLPPAVFLGLARKIYKRRK
notes: recombinant, pET-28a based LIC vector; TEV protease-cleaved for crystals; homodimer of 42 kDa monomers
**Q.** How did the Km (FPPS synthase assay [1]) turn out when B1 was run?
**A.** 2.1 ± 0.2 µM

**Q.** What about the kcat (FPPS synthase assay [1]) of the same protein?
**A.** 0.42 s⁻¹

**Q.** What about the kcat/Km (FPPS synthase assay [1]) of the same protein?
**A.** 200000 M⁻¹ s⁻¹

**Q.** And the Km (FPPS synthase assay [2])?
**A.** 1.8 ± 0.3 µM

**Q.** What about the kcat (FPPS synthase assay [2]) of the same protein?
**A.** 0.42 s⁻¹

**Q.** And the kcat/Km (FPPS synthase assay [2])?
**A.** 230000 M⁻¹ s⁻¹
